Experimental data taken from publication PMC12373997.
Where a chain is given by its changes, count along the chain named. Numbers in names are those of the source.

B1: D. melanogaster augmin N-clamp with Dgt6^3A-mut (K82A, R88A, K96A) (complex)
chain 1: MSDAVDKMLAGMAANRQTMNRQLAKIDEIMERSNNTLLHIESNSKAFSQNVALSETQKMYNLRPEAEMTLSKILENFKLLMSSSDQREETYSALEGCLAYRHRVEHLGSSVRKLVALYDTVGQMKNSQEEQYASEDSP
chain 2: MDRTIIAPWKAEEKEQSEKLHRKLQGLALVHPLPDELRKLIAWDMFLKPNQVAFVHVMHYLFRLLDPAEFKRRFFWPITDKASEANFASSTVEYLAHLNEKHQLHWANIKSYLVVMPGGMRFINFLLEFVGFVIQELIKQREKSLGLEAGTPNVSAKVMARQNAVMKEYASSYVVNLEENTALLRDKTQKIRRLMADLSADMGVPEEQLADDGFLDEFEATAALGVERVITQPTERKFDLEASLCGLKEAIDLFQVKQAENNQSKEAVEKALRGMRVLFDCDAVTEGDFYDPLGASKMDALLNGFNRISGTIAEQLDANDHYNESNAFVTTDLQALRVELSQSEVQLNNLLKKLNEPSKKDKGSANASGSARVQTLQPATPRFESVISSKFVSTPPIRIDMGGGGGRNAPVRLALQDDFNGKQFDALSNSLLAPAPPRSARKLKALDQSTGIDLNGTLNRSKINDPMQMLRTIHKNTSKVKAAPQANLSSLGSKWKQMQASFGFDEAPVPGAAVISPQTSPTDPSDPFTPLSGSECTRIERIPRTSENNTSLIAKSAAVIKVLEVSRNVLNLSTSPSGRLDALVPHTESHQQDVAPRLQLNDRTINDSLQLDPDFNIENDKNAFNVSHKFDFDQIGGEDDLQNISDSVLKDIIF
chain 3: METNVDFSSISSKLYRKYAQHVRNLKDVCVSKTVMKPGAFFDSLQQMMEEEAAATTPPRDLSSVADYAELFKTLEEYPANLQKMPKKRELQRTNSTLLRGADESVAMGINTSNVSLSLTRLEEQRSAVDVYNDFKGFQRKLAKIYDEAAALDTTESIYKQKLTQLHGFAQQLEKLMPTGGESPPDAFTSEQQEKLLTIAANMEQLNYLRSNSLQLPNPNEILATGSLAARLEMFVEVLTYTLLQVSSYNMAMI
chain 4: METPPTPTTTTPPSLTTEGTMDDIQYLLHLEAMRRFQEDSRNVKRQVEEQVRIWLDAKCEYQRDFGRLARLLKCGALQAAVDAHRVSDVNQVDQAAKDIASLRSKLGSDLRPAILDSNDVKQCLEHLNTTHKPRLNLCRQQREFAQNQEALRSLRTAVDGLENGMEMGMIQAMDRLVEDLLPPRETNN
B2: D. melanogaster augmin N-clamp, wild type (Msd1, Dgt6, Msd5-EGFP-HIS8, Dgt4-HIS8) (complex)
chain 1: B1 chain 1
chain 2: B1 chain 2 with A82K, A88R, A96K
chain 3: B1 chain 3
chain 4: B1 chain 4
B3: D. melanogaster augmin N-clamp with Msd5^Δ81–93 (loop deletion) (complex)
chain 1: B1 chain 1
chain 2: B1 chain 2 with A82K, A88R, A96K
chain 3: METNVDFSSISSKLYRKYAQHVRNLKDVCVSKTVMKPGAFFDSLQQMMEEEAAATTPPRDLSSVADYAELFKTLEEYPANNSTLLRGADESVAMGINTSNVSLSLTRLEEQRSAVDVYNDFKGFQRKLAKIYDEAAALDTTESIYKQKLTQLHGFAQQLEKLMPTGGESPPDAFTSEQQEKLLTIAANMEQLNYLRSNSLQLPNPNEILATGSLAARLEMFVEVLTYTLLQVSSYNMAMI
chain 4: B1 chain 4

What follows are binders tested against Taxol-stabilized microtubules polymerised from purified porcine brain tubulin (porcine) (UniProt P02550) (assay: co-sedimentation; tubulin co-sedimentation: taxol-stabilized MTs (varied, α/β-tubulin heterodimer molarity) with 1 µM purified N-clamp, 0.25 mg/ml BSA, BRB80-MT buffer (80 mM PIPES, 1 mM MgCl2, 1 mM EGTA, 12.5% glycerol, pH 6.8), 20 min at room temperature, 200,000 g 10 min 27 °C; SDS-PAGE densitometry of pellet; apparent Kd from a quadratic fit).

Binder | Kd [µM]
B1 | 25.5
B2 | 0.4
B3 | 1
